Paper doi:10.1101/2021.10.14.464379
Several values for one entry are separate records, joined by “and”; a condition that tells them apart may be missing. Equal entries are not always repeated.

How the values were obtained:
[1] = target: ZmBAM7-S (short form of corn BAM7), full-length recombinant protein (Zea mays); experiment: SEC
[2] = target: ZmBAM7-S (short form of corn BAM7), full-length recombinant protein (Zea mays); experiment: SAXS

stoichiometry N [1]: 4 subunits and 6 subunits
stoichiometry N [2]: 4
Substance: ZmBAM7-S (short form of corn BAM7), full-length recombinant protein (enzyme)
